In article PMC5182059:

B1: Ric-8A (1-491) G457A (domain or fragment)
chain: MEPRAVADALETGEEDAVTEALRSFNREHSQSFTFDDAQQEDRKRLAKLLVSVLEQGLSPKHRVTWLQTIRILSRDRSCLDSFASRQSLHALACYADIAISEEPIPQPPDMDVLLESLKCLCNLVLSSPTAQMLAAEARLVVRLAERVGLYRKRSYPHEVQFFDLRLLFLLTALRTDVRQQLFQELHGVRLLTDALELTLGVAPKENPLVILPAQETERAMEILKVLFNITYDSVKREVDEEDAALYRYLGTLLRHCVMADAAGDRTEEFHGHTVNLLGNLPLKCLDVLLALELHEGSLEFMGVNMDVINALLAFLEKRLHQTHRLKECVAPVLSVLTECARMHRPARKFLKAQVLPPLRDVRTRPEVGDLLRNKLVRLMTHLDTDVKRVAAEFLFVLCSESVPRFIKYTGYGNAAGLLAARGLMAGGRPEGQYSEDEDTDTEEYREAKASINPVTARVEEKPPNPMEGMTEEQKEHEAMKLVNMFDKLSR
B2: Ric-8A (1-491), rat (Resistance to Inhibitors of Cholinesterase 8A) (domain or fragment)
chain: MEPRAVADALETGEEDAVTEALRSFNREHSQSFTFDDAQQEDRKRLAKLLVSVLEQGLSPKHRVTWLQTIRILSRDRSCLDSFASRQSLHALACYADIAISEEPIPQPPDMDVLLESLKCLCNLVLSSPTAQMLAAEARLVVRLAERVGLYRKRSYPHEVQFFDLRLLFLLTALRTDVRQQLFQELHGVRLLTDALELTLGVAPKENPLVILPAQETERAMEILKVLFNITYDSVKREVDEEDAALYRYLGTLLRHCVMADAAGDRTEEFHGHTVNLLGNLPLKCLDVLLALELHEGSLEFMGVNMDVINALLAFLEKRLHQTHRLKECVAPVLSVLTECARMHRPARKFLKAQVLPPLRDVRTRPEVGDLLRNKLVRLMTHLDTDVKRVAAEFLFVLCSESVPRFIKYTGYGNAAGLLAARGLMAGGRPEGQYSEDEDTDTEEYREAKASINPVTGRVEEKPPNPMEGMTEEQKEHEAMKLVNMFDKLSR
B3: Ric-8A (1-491) P464A (domain or fragment)
chain: MEPRAVADALETGEEDAVTEALRSFNREHSQSFTFDDAQQEDRKRLAKLLVSVLEQGLSPKHRVTWLQTIRILSRDRSCLDSFASRQSLHALACYADIAISEEPIPQPPDMDVLLESLKCLCNLVLSSPTAQMLAAEARLVVRLAERVGLYRKRSYPHEVQFFDLRLLFLLTALRTDVRQQLFQELHGVRLLTDALELTLGVAPKENPLVILPAQETERAMEILKVLFNITYDSVKREVDEEDAALYRYLGTLLRHCVMADAAGDRTEEFHGHTVNLLGNLPLKCLDVLLALELHEGSLEFMGVNMDVINALLAFLEKRLHQTHRLKECVAPVLSVLTECARMHRPARKFLKAQVLPPLRDVRTRPEVGDLLRNKLVRLMTHLDTDVKRVAAEFLFVLCSESVPRFIKYTGYGNAAGLLAARGLMAGGRPEGQYSEDEDTDTEEYREAKASINPVTGRVEEKPANPMEGMTEEQKEHEAMKLVNMFDKLSR
B4: Ric-8A (1-491) R458A (domain or fragment)
chain: MEPRAVADALETGEEDAVTEALRSFNREHSQSFTFDDAQQEDRKRLAKLLVSVLEQGLSPKHRVTWLQTIRILSRDRSCLDSFASRQSLHALACYADIAISEEPIPQPPDMDVLLESLKCLCNLVLSSPTAQMLAAEARLVVRLAERVGLYRKRSYPHEVQFFDLRLLFLLTALRTDVRQQLFQELHGVRLLTDALELTLGVAPKENPLVILPAQETERAMEILKVLFNITYDSVKREVDEEDAALYRYLGTLLRHCVMADAAGDRTEEFHGHTVNLLGNLPLKCLDVLLALELHEGSLEFMGVNMDVINALLAFLEKRLHQTHRLKECVAPVLSVLTECARMHRPARKFLKAQVLPPLRDVRTRPEVGDLLRNKLVRLMTHLDTDVKRVAAEFLFVLCSESVPRFIKYTGYGNAAGLLAARGLMAGGRPEGQYSEDEDTDTEEYREAKASINPVTGAVEEKPPNPMEGMTEEQKEHEAMKLVNMFDKLSR
B5: Ric-8A (1-491) P463A (domain or fragment)
chain: MEPRAVADALETGEEDAVTEALRSFNREHSQSFTFDDAQQEDRKRLAKLLVSVLEQGLSPKHRVTWLQTIRILSRDRSCLDSFASRQSLHALACYADIAISEEPIPQPPDMDVLLESLKCLCNLVLSSPTAQMLAAEARLVVRLAERVGLYRKRSYPHEVQFFDLRLLFLLTALRTDVRQQLFQELHGVRLLTDALELTLGVAPKENPLVILPAQETERAMEILKVLFNITYDSVKREVDEEDAALYRYLGTLLRHCVMADAAGDRTEEFHGHTVNLLGNLPLKCLDVLLALELHEGSLEFMGVNMDVINALLAFLEKRLHQTHRLKECVAPVLSVLTECARMHRPARKFLKAQVLPPLRDVRTRPEVGDLLRNKLVRLMTHLDTDVKRVAAEFLFVLCSESVPRFIKYTGYGNAAGLLAARGLMAGGRPEGQYSEDEDTDTEEYREAKASINPVTGRVEEKAPNPMEGMTEEQKEHEAMKLVNMFDKLSR
B6: Ric-8A (1-491) N465A (domain or fragment)
chain: MEPRAVADALETGEEDAVTEALRSFNREHSQSFTFDDAQQEDRKRLAKLLVSVLEQGLSPKHRVTWLQTIRILSRDRSCLDSFASRQSLHALACYADIAISEEPIPQPPDMDVLLESLKCLCNLVLSSPTAQMLAAEARLVVRLAERVGLYRKRSYPHEVQFFDLRLLFLLTALRTDVRQQLFQELHGVRLLTDALELTLGVAPKENPLVILPAQETERAMEILKVLFNITYDSVKREVDEEDAALYRYLGTLLRHCVMADAAGDRTEEFHGHTVNLLGNLPLKCLDVLLALELHEGSLEFMGVNMDVINALLAFLEKRLHQTHRLKECVAPVLSVLTECARMHRPARKFLKAQVLPPLRDVRTRPEVGDLLRNKLVRLMTHLDTDVKRVAAEFLFVLCSESVPRFIKYTGYGNAAGLLAARGLMAGGRPEGQYSEDEDTDTEEYREAKASINPVTGRVEEKPPAPMEGMTEEQKEHEAMKLVNMFDKLSR
B7: Ric-8A (1-491) E460A (domain or fragment)
chain: MEPRAVADALETGEEDAVTEALRSFNREHSQSFTFDDAQQEDRKRLAKLLVSVLEQGLSPKHRVTWLQTIRILSRDRSCLDSFASRQSLHALACYADIAISEEPIPQPPDMDVLLESLKCLCNLVLSSPTAQMLAAEARLVVRLAERVGLYRKRSYPHEVQFFDLRLLFLLTALRTDVRQQLFQELHGVRLLTDALELTLGVAPKENPLVILPAQETERAMEILKVLFNITYDSVKREVDEEDAALYRYLGTLLRHCVMADAAGDRTEEFHGHTVNLLGNLPLKCLDVLLALELHEGSLEFMGVNMDVINALLAFLEKRLHQTHRLKECVAPVLSVLTECARMHRPARKFLKAQVLPPLRDVRTRPEVGDLLRNKLVRLMTHLDTDVKRVAAEFLFVLCSESVPRFIKYTGYGNAAGLLAARGLMAGGRPEGQYSEDEDTDTEEYREAKASINPVTGRVAEKPPNPMEGMTEEQKEHEAMKLVNMFDKLSR
B8: Ric-8A (1-491) K462A (domain or fragment)
chain: MEPRAVADALETGEEDAVTEALRSFNREHSQSFTFDDAQQEDRKRLAKLLVSVLEQGLSPKHRVTWLQTIRILSRDRSCLDSFASRQSLHALACYADIAISEEPIPQPPDMDVLLESLKCLCNLVLSSPTAQMLAAEARLVVRLAERVGLYRKRSYPHEVQFFDLRLLFLLTALRTDVRQQLFQELHGVRLLTDALELTLGVAPKENPLVILPAQETERAMEILKVLFNITYDSVKREVDEEDAALYRYLGTLLRHCVMADAAGDRTEEFHGHTVNLLGNLPLKCLDVLLALELHEGSLEFMGVNMDVINALLAFLEKRLHQTHRLKECVAPVLSVLTECARMHRPARKFLKAQVLPPLRDVRTRPEVGDLLRNKLVRLMTHLDTDVKRVAAEFLFVLCSESVPRFIKYTGYGNAAGLLAARGLMAGGRPEGQYSEDEDTDTEEYREAKASINPVTGRVEEAPPNPMEGMTEEQKEHEAMKLVNMFDKLSR
B9: Ric-8A (1-491) E461A (domain or fragment)
chain: MEPRAVADALETGEEDAVTEALRSFNREHSQSFTFDDAQQEDRKRLAKLLVSVLEQGLSPKHRVTWLQTIRILSRDRSCLDSFASRQSLHALACYADIAISEEPIPQPPDMDVLLESLKCLCNLVLSSPTAQMLAAEARLVVRLAERVGLYRKRSYPHEVQFFDLRLLFLLTALRTDVRQQLFQELHGVRLLTDALELTLGVAPKENPLVILPAQETERAMEILKVLFNITYDSVKREVDEEDAALYRYLGTLLRHCVMADAAGDRTEEFHGHTVNLLGNLPLKCLDVLLALELHEGSLEFMGVNMDVINALLAFLEKRLHQTHRLKECVAPVLSVLTECARMHRPARKFLKAQVLPPLRDVRTRPEVGDLLRNKLVRLMTHLDTDVKRVAAEFLFVLCSESVPRFIKYTGYGNAAGLLAARGLMAGGRPEGQYSEDEDTDTEEYREAKASINPVTGRVEAKPPNPMEGMTEEQKEHEAMKLVNMFDKLSR
B10: Ric-8A (1-491) V459A (domain or fragment)
chain: MEPRAVADALETGEEDAVTEALRSFNREHSQSFTFDDAQQEDRKRLAKLLVSVLEQGLSPKHRVTWLQTIRILSRDRSCLDSFASRQSLHALACYADIAISEEPIPQPPDMDVLLESLKCLCNLVLSSPTAQMLAAEARLVVRLAERVGLYRKRSYPHEVQFFDLRLLFLLTALRTDVRQQLFQELHGVRLLTDALELTLGVAPKENPLVILPAQETERAMEILKVLFNITYDSVKREVDEEDAALYRYLGTLLRHCVMADAAGDRTEEFHGHTVNLLGNLPLKCLDVLLALELHEGSLEFMGVNMDVINALLAFLEKRLHQTHRLKECVAPVLSVLTECARMHRPARKFLKAQVLPPLRDVRTRPEVGDLLRNKLVRLMTHLDTDVKRVAAEFLFVLCSESVPRFIKYTGYGNAAGLLAARGLMAGGRPEGQYSEDEDTDTEEYREAKASINPVTGRAEEKPPNPMEGMTEEQKEHEAMKLVNMFDKLSR

Each binder was assayed against myristoylated Gαi1 harboring a hexahistidine tag in the helical domain (rat) (UniProt P10824).
Sequence of UniProt P10824 (P10824 whole entry, the tested form may be a part): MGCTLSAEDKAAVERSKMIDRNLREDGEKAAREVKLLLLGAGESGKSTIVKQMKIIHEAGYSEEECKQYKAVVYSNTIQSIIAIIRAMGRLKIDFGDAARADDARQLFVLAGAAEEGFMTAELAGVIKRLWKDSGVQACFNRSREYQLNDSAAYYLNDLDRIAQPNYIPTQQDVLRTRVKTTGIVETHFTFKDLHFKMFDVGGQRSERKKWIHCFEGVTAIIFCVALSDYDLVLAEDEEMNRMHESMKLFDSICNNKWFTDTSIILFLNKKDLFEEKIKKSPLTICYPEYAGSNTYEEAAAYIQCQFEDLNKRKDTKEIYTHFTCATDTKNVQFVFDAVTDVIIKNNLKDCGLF

In order of rising v1: initial velocity of GDP to GTPγS exchange at Gαi1•GDP (2 μM) on adding GTPγS (10 μM) and Ric-8A (2 μM), tryptophan fluorescence, 25°C:
1. B4  0.63 µM/min
2. B6  2.25 µM/min
3. B3  2.83 µM/min
4. B5  2.9 µM/min
5. B1  3.47 µM/min
6. B2  3.84 µM/min
7. B8  4.46 µM/min
8. B10  5.65 µM/min
9. B7  6.54 µM/min
10. B9  7.45 µM/min

In order of falling v2: initial rate of GTPγS binding to pre-formed Gαi1:Ric-8A (2 μM each, incubated 5 min before 10 μM GTPγS), with release of Ric-8A, tryptophan fluorescence, 25°C:
1. B10  6.85 µM/min
2. B1  6.02 µM/min
3. B7  5.36 µM/min
4. B8  5.15 µM/min
5. B9  5.06 µM/min
6. B5  4.78 µM/min
7. B3  4.73 µM/min
8. B2  4.66 µM/min
9. B6  4.56 µM/min
10. B4  0.37 µM/min
